One block for each binder: values may come before it.
Experiments:
Experiment in all cases: SPR, Fab on captured PD-1-Fc;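 further: Alanine-scan PD-1 Fc fusions expressed transiently in ExpiCHO, captured on anti-human IgG Fc surface in IBIS MX96, anti-PD-1 Fab association 15 min, dissociation 30 min, Langmuir 1:1 fit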
human PD-1 ECD-Fc E136A = biological target: T1, human PD-1 ECD-Fc E136A (human, UniProt Q15116 21-170)
T1 construct: not shown: human IgG1 Fc, residues P101-K330

human PD-1 ECD-Fc P72A = biological target: T2, human PD-1 ECD-Fc P72A (human, UniProt Q15116 21-170)
T2 construct: not shown: human IgG1 Fc, residues P101-K330
T2 sequence (Q15116 21-170 P72A): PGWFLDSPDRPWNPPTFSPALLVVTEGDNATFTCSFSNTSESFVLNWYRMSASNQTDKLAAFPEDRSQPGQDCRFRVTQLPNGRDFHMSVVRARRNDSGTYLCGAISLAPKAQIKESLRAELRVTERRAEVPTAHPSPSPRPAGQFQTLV

human PD-1 ECD-Fc C93A = biological target: T3, human PD-1 ECD-Fc C93A (human, UniProt Q15116 21-170)
T3 construct: not shown: human IgG1 Fc, residues P101-K330
T3 sequence (Q15116 21-170 C93A): as the sequence (Q15116 21-170 P72A) above, with A52P, C73A counted along it

human PD-1 ECD-Fc V44A = biological target: T4, human PD-1 ECD-Fc V44A (human, UniProt Q15116 21-170)
T4 construct: not shown: human IgG1 Fc, residues P101-K330
T4 sequence (Q15116 21-170 V44A): as the sequence (Q15116 21-170 P72A) above, with V24A, A52P counted along it

human PD-1 ECD-Fc P162A = biological target: T5, human PD-1 ECD-Fc P162A (human, UniProt Q15116 21-170)
T5 construct: not shown: human IgG1 Fc, residues P101-K330

human PD-1 ECD-Fc A80G = biological target: T6, human PD-1 ECD-Fc A80G (human, UniProt Q15116 21-170)
T6 construct: not shown: human IgG1 Fc, residues P101-K330
T6 sequence (Q15116 21-170 A80G): as the sequence (Q15116 21-170 P72A) above, with A52P, A60G counted along it

human PD-1 ECD-Fc E146A = biological target: T7, human PD-1 ECD-Fc E146A (human, UniProt Q15116 21-170)
T7 construct: not shown: human IgG1 Fc, residues P101-K330
T7 sequence (Q15116 21-170 E146A): as the sequence (Q15116 21-170 P72A) above, with A52P, E126A counted along it

human PD-1 ECD-Fc Q165A = biological target: T8, human PD-1 ECD-Fc Q165A (human, UniProt Q15116 21-170)
T8 construct: not shown: human IgG1 Fc, residues P101-K330

human PD-1 ECD-Fc D26A = biological target: T9, human PD-1 ECD-Fc D26A (human, UniProt Q15116 21-170)
T9 construct: not shown: human IgG1 Fc, residues P101-K330
T9 sequence (Q15116 21-170 D26A): as the sequence (Q15116 21-170 P72A) above, with D6A, A52P counted along it

human PD-1 ECD-Fc D77A = biological target: T10, human PD-1 ECD-Fc D77A (human, UniProt Q15116 21-170)
T10 construct: not shown: human IgG1 Fc, residues P101-K330
T10 sequence (Q15116 21-170 D77A): as the sequence (Q15116 21-170 P72A) above, with A52P, D57A counted along it

human PD-1 ECD-Fc A50G = biological target: T11, human PD-1 ECD-Fc A50G (human, UniProt Q15116 21-170)
T11 construct: not shown: human IgG1 Fc, residues P101-K330

human PD-1 ECD-Fc P156A = biological target: T12, human PD-1 ECD-Fc P156A (human, UniProt Q15116 21-170)
T12 construct: not shown: human IgG1 Fc, residues P101-K330
T12 sequence (Q15116 21-170 P156A): as the sequence (Q15116 21-170 P72A) above, with A52P, P136A counted along it

human PD-1 ECD-Fc Q167A = biological target: T13, human PD-1 ECD-Fc Q167A (human, UniProt Q15116 21-170)
T13 construct: label printed under 'Rat mutation', values in r90; not shown: human IgG1 Fc, residues P101-K330
T13 sequence (Q15116 21-170 Q167A): as the sequence (Q15116 21-170 P72A) above, with A52P, Q147A counted along it

human PD-1 ECD-Fc N49A = biological target: T14, human PD-1 ECD-Fc N49A (human, UniProt Q15116 21-170)
T14 construct: not shown: human IgG1 Fc, residues P101-K330
T14 sequence (Q15116 21-170 N49A): as the sequence (Q15116 21-170 P72A) above, with N29A, A52P counted along it

human PD-1 ECD-Fc A132G = biological target: T15, human PD-1 ECD-Fc A132G (human, UniProt Q15116 21-170)
T15 construct: not shown: human IgG1 Fc, residues P101-K330
T15 sequence (Q15116 21-170 A132G): as the sequence (Q15116 21-170 P72A) above, with A52P, A112G counted along it

human PD-1 ECD-Fc N116A = biological target: T16, human PD-1 ECD-Fc N116A (human, UniProt Q15116 21-170)
T16 construct: not shown: human IgG1 Fc, residues P101-K330
T16 sequence (Q15116 21-170 N116A): as the sequence (Q15116 21-170 P72A) above, with A52P, N96A counted along it

human PD-1 ECD-Fc K135A = biological target: T17, human PD-1 ECD-Fc K135A (human, UniProt Q15116 21-170)
T17 construct: not shown: human IgG1 Fc, residues P101-K330
T17 sequence (Q15116 21-170 K135A): as the sequence (Q15116 21-170 P72A) above, with A52P, K115A counted along it

human PD-1 ECD-Fc S87A = biological target: T18, human PD-1 ECD-Fc S87A (human, UniProt Q15116 21-170)
T18 construct: not shown: human IgG1 Fc, residues P101-K330
T18 sequence (Q15116 21-170 S87A): as the sequence (Q15116 21-170 P72A) above, with A52P, S67A counted along it

human PD-1 ECD-Fc S27A = biological target: T19, human PD-1 ECD-Fc S27A (human, UniProt Q15116 21-170)
T19 construct: not shown: human IgG1 Fc, residues P101-K330
T19 sequence (Q15116 21-170 S27A): as the sequence (Q15116 21-170 P72A) above, with S7A, A52P counted along it

human PD-1 ECD-Fc N33A = biological target: T20, human PD-1 ECD-Fc N33A (human, UniProt Q15116 21-170)
T20 construct: not shown: human IgG1 Fc, residues P101-K330

human PD-1 ECD-Fc T36A = biological target: T21, human PD-1 ECD-Fc T36A (human, UniProt Q15116 21-170)
T21 construct: not shown: human IgG1 Fc, residues P101-K330
T21 sequence (Q15116 21-170 T36A): as the sequence (Q15116 21-170 P72A) above, with T16A, A52P counted along it

human PD-1 ECD-Fc D29A = biological target: T22, human PD-1 ECD-Fc D29A (human, UniProt Q15116 21-170)
T22 construct: not shown: human IgG1 Fc, residues P101-K330
T22 sequence (Q15116 21-170 D29A): as the sequence (Q15116 21-170 P72A) above, with D9A, A52P counted along it

human PD-1 ECD-Fc T145A = biological target: T23, human PD-1 ECD-Fc T145A (human, UniProt Q15116 21-170)
T23 construct: not shown: human IgG1 Fc, residues P101-K330

human PD-1 ECD-Fc G124A = biological target: T24, human PD-1 ECD-Fc G124A (human, UniProt Q15116 21-170)
T24 construct: not shown: human IgG1 Fc, residues P101-K330
T24 sequence (Q15116 21-170 G124A): as the sequence (Q15116 21-170 P72A) above, with A52P, G104A counted along it

human PD-1 ECD-Fc K78A = biological target: T25, human PD-1 ECD-Fc K78A (human, UniProt Q15116 21-170)
T25 construct: not shown: human IgG1 Fc, residues P101-K330
T25 sequence (Q15116 21-170 K78A): as the sequence (Q15116 21-170 P72A) above, with A52P, K58A counted along it

human PD-1 ECD-Fc L128A = biological target: T26, human PD-1 ECD-Fc L128A (human, UniProt Q15116 21-170)
T26 construct: not shown: human IgG1 Fc, residues P101-K330

human PD-1 ECD-Fc S57A = biological target: T27, human PD-1 ECD-Fc S57A (human, UniProt Q15116 21-170)
T27 construct: not shown: human IgG1 Fc, residues P101-K330
T27 sequence (Q15116 21-170 S57A): as the sequence (Q15116 21-170 P72A) above, with S37A, A52P counted along it

human PD-1 ECD-Fc T98A = biological target: T28, human PD-1 ECD-Fc T98A (human, UniProt Q15116 21-170)
T28 construct: not shown: human IgG1 Fc, residues P101-K330

human PD-1 ECD-Fc G90A = biological target: T29, human PD-1 ECD-Fc G90A (human, UniProt Q15116 21-170)
T29 construct: not shown: human IgG1 Fc, residues P101-K330

human PD-1 ECD-Fc K131A = biological target: T30, human PD-1 ECD-Fc K131A (human, UniProt Q15116 21-170)
T30 construct: not shown: human IgG1 Fc, residues P101-K330
T30 sequence (Q15116 21-170 K131A): as the sequence (Q15116 21-170 P72A) above, with A52P, K111A counted along it

human PD-1 ECD-Fc G103A = biological target: T31, human PD-1 ECD-Fc G103A (human, UniProt Q15116 21-170)
T31 construct: not shown: human IgG1 Fc, residues P101-K330

human PD-1 ECD-Fc A40T = biological target: T32, human PD-1 ECD-Fc A40T (human, UniProt Q15116 21-170)
T32 construct: also called Rat mutation A40T; not shown: human IgG1 Fc, residues P101-K330

T1 sequence (Q15116 21-170 E136A): as the sequence (Q15116 21-170 P72A) above, with A52P, E116A counted along it

- KD mutant/KD wild-type (human PD-1 ECD-Fc E136A): 0.8 ratio
- KD mutant/KD wild-type (human PD-1 ECD-Fc P72A): 1.1 ratio
- KD mutant/KD wild-type (human PD-1 ECD-Fc C93A): 1.2 ratio
- KD mutant/KD wild-type (human PD-1 ECD-Fc V44A): 1.4 ratio
- KD mutant/KD wild-type (human PD-1 ECD-Fc P162A): 1.3 ratio
- KD mutant/KD wild-type (human PD-1 ECD-Fc A80G): 1.2 ratio
- KD mutant/KD wild-type (human PD-1 ECD-Fc E146A): 1.2 ratio
- KD mutant/KD wild-type (human PD-1 ECD-Fc Q165A): 1.1 ratio
- KD mutant/KD wild-type (human PD-1 ECD-Fc D26A): 1.1 ratio
- KD mutant/KD wild-type (human PD-1 ECD-Fc D77A): 2.8 ratio
- KD mutant/KD wild-type (human PD-1 ECD-Fc A50G): 1.4 ratio
- KD mutant/KD wild-type (human PD-1 ECD-Fc P156A): 1 ratio
- KD mutant/KD wild-type (human PD-1 ECD-Fc Q167A): 0.8 ratio
- KD mutant/KD wild-type (human PD-1 ECD-Fc N49A): 1.1 ratio
- KD mutant/KD wild-type (human PD-1 ECD-Fc A132G): 53.4 ratio
- KD mutant/KD wild-type (human PD-1 ECD-Fc N116A): 1.4 ratio
- KD mutant/KD wild-type (human PD-1 ECD-Fc K135A): 4.2 ratio
- KD mutant/KD wild-type (human PD-1 ECD-Fc S87A): 1.3 ratio
- KD mutant/KD wild-type (human PD-1 ECD-Fc S27A): 0.8 ratio
- KD mutant/KD wild-type (human PD-1 ECD-Fc N33A): 1 ratio
- KD mutant/KD wild-type (human PD-1 ECD-Fc T36A): 1 ratio
- KD mutant/KD wild-type (human PD-1 ECD-Fc D29A): 1 ratio
- KD mutant/KD wild-type (human PD-1 ECD-Fc T145A): 1.1 ratio
- KD mutant/KD wild-type (human PD-1 ECD-Fc G124A): 0.5 ratio
- KD mutant/KD wild-type (human PD-1 ECD-Fc K78A): 2.6 ratio
- KD mutant/KD wild-type (human PD-1 ECD-Fc L128A): 17.1 ratio
- KD mutant/KD wild-type (human PD-1 ECD-Fc S57A): 1.2 ratio
- KD mutant/KD wild-type (human PD-1 ECD-Fc T98A): 1.1 ratio
- KD mutant/KD wild-type (human PD-1 ECD-Fc G90A): 1 ratio
- binding result (human PD-1 ECD-Fc K131A): no binding (tested: 1 nM to 50 nM)
- KD mutant/KD wild-type (human PD-1 ECD-Fc G103A): 1.1 ratio
- KD mutant/KD wild-type (human PD-1 ECD-Fc A40T): 2 ratio
B1: 12819.17149 Fab (Fab, V domains shown)
VH: EVQLLESGGGLVQPGGSLRLSCAASGFTFTRYDMVWVRQAPGKGLEWVAGIGDSNKMTRYAPAVKGRATISRDNSKNTLYLQMNSLRAEDTAVYYCAKGSCIACWDEAGRIDAWGQGTLVTVSS
VL: SYELTQDPAVSVALGQTVRITCSGGGSYDGSSYYGWYQQKPGQAPVTVIYNNNNRPSDIPDRFSGSSSGNTASLTITGAQAEDEADYYCGSYDRPETNSDYVGMFGSGTKVTVL
notes: monomeric Fab fragment

- KD mutant/KD wild-type (human PD-1 ECD-Fc E136A): 1 ratio
- KD mutant/KD wild-type (human PD-1 ECD-Fc P72A): 1 ratio
- KD mutant/KD wild-type (human PD-1 ECD-Fc C93A): 1.1 ratio
- KD mutant/KD wild-type (human PD-1 ECD-Fc V44A): 9.9 ratio
- KD mutant/KD wild-type (human PD-1 ECD-Fc P162A): 1.1 ratio
- KD mutant/KD wild-type (human PD-1 ECD-Fc A80G): 1 ratio
- KD mutant/KD wild-type (human PD-1 ECD-Fc E146A): 1 ratio
- KD mutant/KD wild-type (human PD-1 ECD-Fc Q165A): 1.1 ratio
- KD mutant/KD wild-type (human PD-1 ECD-Fc D26A): 1.2 ratio
- KD mutant/KD wild-type (human PD-1 ECD-Fc D77A): 1 ratio
- KD mutant/KD wild-type (human PD-1 ECD-Fc A50G): 1.7 ratio
- KD mutant/KD wild-type (human PD-1 ECD-Fc P156A): 1.5 ratio
- KD mutant/KD wild-type (human PD-1 ECD-Fc Q167A): 0.9 ratio
- KD mutant/KD wild-type (human PD-1 ECD-Fc N49A): 1 ratio
- KD mutant/KD wild-type (human PD-1 ECD-Fc A132G): 1 ratio
- KD mutant/KD wild-type (human PD-1 ECD-Fc N116A): 0.9 ratio
- KD mutant/KD wild-type (human PD-1 ECD-Fc K135A): 1.2 ratio
- KD mutant/KD wild-type (human PD-1 ECD-Fc S87A): 1 ratio
- KD mutant/KD wild-type (human PD-1 ECD-Fc S27A): 1.1 ratio
- KD mutant/KD wild-type (human PD-1 ECD-Fc N33A): 1 ratio
- KD mutant/KD wild-type (human PD-1 ECD-Fc T36A): 0.9 ratio
- KD mutant/KD wild-type (human PD-1 ECD-Fc D29A): 1 ratio
- KD mutant/KD wild-type (human PD-1 ECD-Fc T145A): 82.4 ratio
- KD mutant/KD wild-type (human PD-1 ECD-Fc G124A): 1 ratio
- KD mutant/KD wild-type (human PD-1 ECD-Fc K78A): 1.1 ratio
- KD mutant/KD wild-type (human PD-1 ECD-Fc L128A): 0.9 ratio
- KD mutant/KD wild-type (human PD-1 ECD-Fc S57A): 1.1 ratio
- KD mutant/KD wild-type (human PD-1 ECD-Fc T98A): 1 ratio
- KD mutant/KD wild-type (human PD-1 ECD-Fc G90A): 1 ratio
- KD mutant/KD wild-type (human PD-1 ECD-Fc K131A): 0.9 ratio
- KD mutant/KD wild-type (human PD-1 ECD-Fc G103A): 0.9 ratio
- KD mutant/KD wild-type (human PD-1 ECD-Fc A40T): 0.6 ratio
B2: 13112.15380 Fab (Fab, V domains shown)
VH: EVQLLESGGGLVQPGGSLRLSCAASGFTFSSYNMFWVRQAPGKGLEFVAEISGSNTGSRTWYAPAVKGRATISRDNSKNTLYLQMNSLRAEDTAVYYCAKSIYGGYCAGGYSCGVGLIDAWGQGTLVTVSS
VL: SYELTQDPAVSVALGQTVRITCSGGSSDYYGWFQQKPGQAPVTVIYYNNKRPSDIPDRFSGSSSGNTASLTITGAQAEDEADYYCGNADSSVGVFGSGTKVTVL
